Substitutions are numbered along the chain they refer to. Square brackets hold non-standard residues; d marks the D form. Ends that are not written are not given here. A^u = urea residue with alanine side chain
T1: mouse GLP-1 receptor endogenously expressed in βTC6 cells (mouse, UniProt O35659 22-463)
T1 sequence (looked up): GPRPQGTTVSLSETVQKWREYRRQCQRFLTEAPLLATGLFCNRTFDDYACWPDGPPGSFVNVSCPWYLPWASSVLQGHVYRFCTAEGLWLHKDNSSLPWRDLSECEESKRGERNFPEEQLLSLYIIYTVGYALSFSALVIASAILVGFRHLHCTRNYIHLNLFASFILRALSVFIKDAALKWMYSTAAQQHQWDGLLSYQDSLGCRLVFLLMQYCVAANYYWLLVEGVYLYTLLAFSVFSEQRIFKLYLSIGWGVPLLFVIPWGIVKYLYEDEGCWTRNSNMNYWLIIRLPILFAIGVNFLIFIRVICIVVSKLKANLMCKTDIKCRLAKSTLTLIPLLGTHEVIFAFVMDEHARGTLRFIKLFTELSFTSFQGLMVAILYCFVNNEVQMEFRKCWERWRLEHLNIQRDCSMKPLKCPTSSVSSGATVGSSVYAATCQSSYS

B1: Compound 55 (peptide)
peptide: HSQGTFTSDYSKYLDSRRAQDFXQWLXNT
modifications: A^u at position 23 (urea residue with alanine side chain); Nle (norleucine) at position 27
B2: Compound 57 (peptide)
peptide: HSQGTFTSDYSKYLDSRRAQDFVQXLXNT
modifications: A^u at position 25 (urea residue with alanine side chain); Nle (norleucine) at position 27
B3: Compound 36 (peptide)
peptide: HSQGTFTSDYSKYLDSRRAQDFVQWLXNX
modifications: Nle (norleucine) at position 27; A^u at position 29 (urea residue with alanine side chain)
B4: Compound 58 (peptide)
peptide: HSQGTFTSDYSKYLDSRRAQDFVQWXXNT
modifications: A^u at position 26 (urea residue with alanine side chain); Nle (norleucine) at position 27
B5: Compound 51 (peptide)
peptide: HSQGTFTSDYSKYXDSRRAQDFVQWLXNT
modifications: A^u at position 14 (urea residue with alanine side chain); Nle (norleucine) at position 27
B6: Compound 52 (peptide)
peptide: HSQGTFTSDYSKYLDXRRAQDFVQWLXNT
modifications: A^u at position 16 (urea residue with alanine side chain); Nle (norleucine) at position 27
B7: Compound 53 (peptide)
peptide: HSQGTFTSDYSKYLDSXRAQDFVQWLXNT
modifications: A^u at position 17 (urea residue with alanine side chain); Nle (norleucine) at position 27
B8: Compound 35 (peptide)
peptide: HSQGTFTSDYSKYLDSRRAQDFVQWLXXT
modifications: Nle (norleucine) at position 27; A^u at position 28 (urea residue with alanine side chain)
B9: Compound 46 (peptide)
peptide: HAEGTFTSDVSSYLEGQAAKEFIAWLVXGRG
modifications: K^u at position 28 (urea residue with lysine side chain)
B10: Compound 44 (peptide)
peptide: B9 peptide with L14X, X28K
modifications: Y^u at position 14 (urea residue with tyrosine side chain)
B11: Compound 45 (peptide)
peptide: B9 peptide with A18X, X28K
modifications: A^u at position 18 (urea residue with alanine side chain)
B12: Compound 43 (peptide)
peptide: B9 peptide with A2X, X28K
modifications: A^c at position 2 (N,N'-linked carbomyl / carbamate residue with alanine side chain)
B13: Compound 7 (peptide)
peptide: B9 peptide with V27X, X28K
modifications: A^u at position 27 (urea residue with alanine side chain)
B14: Compound 2 (peptide)
peptide: B9 peptide with A24X, X28K
modifications: A^u at position 24 (urea residue with alanine side chain)
B15: Compound 4 (peptide)
peptide: B9 peptide with W25X, X28K
modifications: W^u at position 25 (urea residue with tryptophan side chain)
B16: Compound 3 (peptide)
peptide: B9 peptide with W25X, X28K
modifications: A^u at position 25 (urea residue with alanine side chain)
B17: Compound 25 (peptide)
peptide: B9 peptide with X28K, G29X
modifications: G^u at position 29 (urea residue with glycine side chain)
B18: Compound 27 (peptide)
peptide: B9 peptide with X28K, G31X
modifications: G^u at position 31 (urea residue with glycine side chain)
B19: Compound 5 (peptide)
peptide: B9 peptide with L26X, X28K
modifications: A^u at position 26 (urea residue with alanine side chain)
B20: Compound 12 (peptide)
peptide: B9 peptide with H1X, X28K
modifications: H^u at position 1 (urea residue with histidine side chain)
B21: Compound 73 (peptide)
peptide: H[A^u]EGTFTSDL[A^u]KQLEEEAVRLFIEWLKNGGPSSGAPPSKKKKKK

molecular target: human glucagon receptor expressed in transfected CHO cells (human, UniProt P47871 26-477); test: cell-based or functional assay

Binder | EC50, Glucagon Functional Assay (cAMP production, HTRF) [nM]
B1 | 34
B2 | 22
B3 | 0.026
B4 | 35
B5 | 68
B6 | 34
B7 | 0.67
B8 | 0.44

molecular target: T1, mouse GLP-1 receptor endogenously …; test: cell-based or functional assay

Binder | % bioactivity of reference (reference compound 1) [%]
B9 | 157
B10 | 150
B11 | 200
B12 | 9

molecular target: T1, mouse GLP-1 receptor endogenously …; test: cell-based or functional assay; remark: another data set of the same source

Binder | EC50, GLP-1 Functional Assay (cAMP production, HTRF) [nM]
B13 | 0.22
B14 | 1.5
B15 | 0.26
B16 | 0.46
B10 | 0.048
B17 | 0.074
B11 | 0.036
B18 | 0.081
B19 | 0.42
B20 | 280
B21 | 0.34

Reference: US20190142905A1 (UREKA SARL, published 2019)
